Measurements published in patent publication US20260176659A1, “IMPROVED METHOD FOR THE PRODUCTION OF NATURAL VANILLIN” (BASE SE, priority 2022, published 2026).
Several values for one entry are separate records, joined by “and”; a condition that tells them apart may be missing. Identical values can stand only once.

What was measured:
Type in all cases: biochemical
[1] = Bioconversion of eugenol to vanillin: one-pot concurrent cascade EUGO + alkene cleavage oxygenase (5 mM scale); settings: 5 mM eugenol; for Intermediate and product distribution at 24 hours 2a [%] / Intermediate and product distribution at 24 hours 3a [%] / Intermediate and product distribution at 24 hours 5a [%] / 2a / 3a / 5a / Conv. [%] ((3a mM)/5*100): EUGO 0.5 mg CFE, CO-25 3 mg CFE, catalase 5 mg; for 2a / 3a / 5a / Conv. [%] ((3a mM)/5*100): 24 hours
Outline: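 Cell-free extracts of EUGO (0.5 mg) and cleavage oxygenase (3 mg) were combined with catalase, 1 mM FeSO4 and 1 mM ascorbate in glycine-NaOH pH 9.0 (or Tris-HCl pH 8.0). The cascade ran with 5 mM eugenol (5% ethanol/DMSO cosolvent) at 30° C and 120 rpm overnight. Methanol-quenched samples were analysed by HPLC at 280/340 nm.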

[2] = Conversion of 50 mM coniferyl alcohol to vanillin by CO-25; settings: for Intermediate and product distribution at 24 hours 2a [%] / Intermediate and product distribution at 24 hours 3a [%] / Intermediate and product distribution at 24 hours 5a [%] / 2a / 3a / 5a / Conv. [%]: CO-25 3 mg CFE, catalase 4 mg, 0.4 mL, 50 mM coniferyl alcohol 2a; for 2a / 3a / 5a / Conv. [%]: 24 hours
Experimental: In each well of a deep-well-plate sealed with a gas permeable tape we mixed CO-25 (3 mg CFE) and catalase (4 mg) with coniferyl alcohol 2a (3.6 mg, 0.02 mL from 1M stock, final conc.: 50 mM) to a final volume of 0.4 mL. After one day incubation shaking at 290 rpm we obtained 40-46% conversion of coniferyl alcohol 2a to vanillin 3a (Table 10).

[3] = Subsequent screening of alkene cleavage oxygenases: activity with coniferyl alcohol
Experimental: Therefore, 50 mL TB-Kan medium in a 250 mL shake flask were inoculated with an overnight preculture of E. coi BL21 (DE3) carrying a pET-28a plasmid encoding CO-25 in the expression cassette. At OD600 ˜0.8-1, the expression was induced with 0.1 mM IPTG and the culture incubated at 25° C. for 20 hours. 0.5 mM FeSO4*7H2O was added together with the inducer. Then, the cells were disrupted by sonication in Glycine-NaOH 50 mM pH 9.0 containing 1 mM FeSO4*7H2O and 1 mM sodium ascorbate. After centrifugation, the cell free extract was lyophilized and stored at −20° C. From 50 mL cell culture we obtained 235 mg of freeze-dried cell free extract.

B1: CO-25: cleavage oxygenase from Novosphingobium aromaticivorans (Uniprot: Q2GA76), SEQ ID NO: 134 (protein)
chain: MAQFPNTPSFTGFNTPSRIEADIADLAHEGTIPQGLNGAFYRVQPDPQFPPRLDDDIAFNGDGMITRFHIHDGQVDFRQRWAKTDKWKLENAAGKALFGAYRNPLTDDEAVKGEIRSTANTNAFVFGGKLWAMKEDSPALVMDPATMETFGFEKFGGKMTGQTFTAHPKVDPKTGNMVAIGYAASGLCTDDVTYMEVSPEGELVREVWFKVPYYCMMHDFGITEDYLVLHIVPSIGSWERLEQGKPHFGFDTTMPVHLGIIPRRDGVRQEDIRWFTRDNCFASHVLNAWQEGTKIHFVTCEAKNNMFPFFPDVHGAPFNGMEAMSHPTDWVVDMASNGEDFAGIVKLSDTAAEFPRIDDRFTGQKTRHGWFLEMDMKRPVELRGGSAGGLLMNCLFHKDFETGREQHWWCGPVSSLQEPCFVPRAKDAPEGDGWIVQVCNRLEEQRSDLLIFDALDIEKGPVATVNIPIRLRFGLHGNWANADEIGLAEKVLAA
modifications: Novosphingobium aromaticivorans
In the case of B1, the “Intermediate and product distribution at 24 hours 2a [%]” value ([1]; pH 8) is reported as 16.4% and 17.1%, the “Intermediate and product distribution at 24 hours 3a [%]” value ([1]; pH 8) is reported as 83.1% and 82.4% and the “Intermediate and product distribution at 24 hours 5a [%]” value ([1]; pH 8) is reported as 0.5%. For the same molecule, the “2a” value ([1]; pH 8) was 4.18 mM and 4.39 mM, the “3a” value ([1]; pH 8) was 4.18 mM and 4.39 mM and the “5a” value ([1]; pH 8) was 0.03 mM. The “Conv. [%] ((3a mM)/5*100)” value ([1]; pH 8) was 83.5% and 87.7%, the “Intermediate and product distribution at 24 hours 2a [%]” value ([1]; pH 9) was 12.8% and 11.6% and the “Intermediate and product distribution at 24 hours 3a [%]” value ([1]; pH 9) was 86.3% and 87.5%. For the same molecule, the “Intermediate and product distribution at 24 hours 5a [%]” value ([1]; pH 9) was 0.9%, the “2a” value ([1]; pH 9) was 4.31 mM and 4.21 mM and the “3a” value ([1]; pH 9) was 4.31 mM and 4.21 mM. For the same molecule, the “5a” value ([1]; pH 9) was 0.05 mM and 0.04 mM, the “Conv. [%] ((3a mM)/5*100)” value ([1]; pH 9) was 86.2% and 84.2% and the “conversion to vanillin 3a” value ([1]; EUGO and CO-25, 0.5 mL scale, pH 8 and 9) was 83-88%. The “Intermediate and product distribution at 24 hours 2a [%]” value ([2]; pH 8) was 47.7%, the “Intermediate and product distribution at 24 hours 3a [%]” value ([2]; pH 8) was 51.1% and the “Intermediate and product distribution at 24 hours 5a [%]” value ([2]; pH 8) was 1.1%. The “2a” value ([2]; pH 8) was 21.48 mM, the “3a” value ([2]; pH 8) was 23.01 mM and the “5a” value ([2]; pH 8) was 0.52 mM. The “Conv. [%]” value ([2]; pH 8) was 46.0%, the “Intermediate and product distribution at 24 hours 2a [%]” value ([2]; pH 9) was 52.5% and the “Intermediate and product distribution at 24 hours 3a [%]” value ([2]; pH 9) was 45.7%. The “Intermediate and product distribution at 24 hours 5a [%]” value ([2]; pH 9) was 1.9%, the “2a” value ([2]; pH 9) was 22.87 mM and the “3a” value ([2]; pH 9) was 19.92 mM. For the same molecule, the “5a” value ([2]; pH 9) was 0.81 mM, the “Conv. [%]” value ([2]; pH 9) was 39.8% and the “conversion of coniferyl alcohol 2a to vanillin 3a” value ([2]; CO-25, 50 mM 2a, one day incubation) was 40-46%. The “activity with coniferyl alcohol in comparison to NOV1 mutant S283F” value [3] was “significant higher activity”.
